Data reported in patent US11459375B2, “Cyclic peptides for the treatment of Graves' disease” (advanceCOR GmbH, priority 2017, dated 2022).

Experiments:
Ad-TSHR-immunized mice = assay: clinical signs of allergic reaction during therapy of immunized mice; assay type: in vivo, BALB/c mice; conditions: 1 mg/kg IV, had to be treated with clemastin
Procedure: The study protocol used three 3-weekly immunizations (“initiation”) and followed by a “maintenance” phase with further regular 4-weekly boosts until the 9th immunisation, as described before (22). Mice were randomly assigned to therapeutic groups. Therapy (either 1 mg/kg body weight peptides or 0.9% NaCl vehicle control) was given 1 week after the 4th immunization by IV injection into a tail vein, and then continued at 4-weekly intervals, as described before for the treatment of anti-β1AR (16). The fusion protein TSHR-Fc was given IV at identical times at doses of 1 mg/kg, but had to be applied together with the histamine receptor blocker clemastin (Tavegil®) at a dose of 0.02 mg per mouse (25 g body weight) to avoid clinical symptoms of allergic reaction, which had been observed in initial pilot studies of TSHR-Fc administration in mice.

[1] = system: monoclonal M22 antibody binding to TSHR; assay: direct binding/scavenging of anti-TSHR antibody M22 (modified 3rd generation titer assay); set-up: species or system human; conditions: 100 μg/mL test substance, M22 final concentration 10 ng/mL
Procedure: In FIG. 8 the effects of peptides on anti-TSHR antibody titers (A) and on cAMP stimulation in TSHR-expressing test cells (B) were studied ex vivo (anti-TSHR-antibody positive serum samples). Each measurement was carried out in 4 samples. Results are shown as % of untreated controls with standard errors of the means (SEM). Significance was tested by analysis of variance (ANOVA) between groups, followed by LSD post-hoc testing. **p<0.001, compared to controls
In order to investigate the direct binding of peptides to anti-TSHR antibodies, Roche's Cobas® assay (04388790) for ECLIA was used with minor modifications: 30 μl of the diluted monoclonal M22-Bio antibody was mixed with 30 μl diluted peptide or TSHR-Fc (final concentration of 100 μg/ml in PBS) and added to the TSHR-pre-coated microtiter plate. After an incubation step for 2 h at room temperature the protocol was continued according to the manufacturer's instructions.

## TSHR-Fc: fusion protein: first 289 amino acids of human TSH receptor (A-subunit), GGR linker and Fc portion of human IgG2
Ad-TSHR-immunized mice
  clinical signs of allergic reactions: clinical signs of allergic reactions
[1]
  anti-TSHR antibody titers (M22 binding to its substrate): significantly reduced anti-TSHR antibody titers
